Measured values: US20180016352A1 (published 2018)

Key:
Assay in all cases: indirect ELISA, recombinant receptor coated, anti-c-myc HRP
recombinant EGFR = molecular target: T1, recombinant EGFR (UniProt P00533 25-645, limits assumed)
T1 construct: It may be the same reagent as rEGFR-hFc; also called rEGFR
Method: (§1) The target binding of the BsAbs was evaluated by indirect ELISA methods using PEG polymer and recombinant target proteins immobilized on ELISA plates. Individual wells of a 96 well Maxisorp plate were coated with 100 μL of 10 μg/mL of polymer (polyethylene glycol monomethyl ether methacrylate) or 10 μg/mL of target recombinant receptor (EphA2, VEGFR2, Mesothelin and EGFR) for 16-20 hr at 4C. PEG and target receptors were diluted in phosphate buffered saline (PBS pH 7.4). […] The blocker was decanted and 100 μL of BsAb, either in cell culture supernatant or purified protein stored in PBS, was added to each well. The BsAb was incubated for 2 hr and then decanted. The wells were washed five times manually in PBST and 100 μL of HRP labeled anti-c-myc antibody diluted 1/5000 in blocker was added to each well and incubated for 30 mins. The c-myc antibody was then decanted and the wells washed again five times manually with PBST. One hundred microliters of TMB was added to all wells and incubated for 10-15 mins or until adequate color development was identified. The TMB colorimetric reaction was neutralized by adding 100 μL of 2M sulfuric acid. The colorimetric reactions in each well was analyzed at an absorbance of 450 nm using the Spectramax plate reader.

[1] = molecular target: recombinant EphA2 receptor (UniProt P29317 25-534, limits assumed)
Method: as §1

recombinant Mesothelin = recombinant Mesothelin (UniProt Q13421 296-580, limits assumed)
Method: as §1

Chain of recombinant EphA2 receptor (P29317 25-534 limits assumed): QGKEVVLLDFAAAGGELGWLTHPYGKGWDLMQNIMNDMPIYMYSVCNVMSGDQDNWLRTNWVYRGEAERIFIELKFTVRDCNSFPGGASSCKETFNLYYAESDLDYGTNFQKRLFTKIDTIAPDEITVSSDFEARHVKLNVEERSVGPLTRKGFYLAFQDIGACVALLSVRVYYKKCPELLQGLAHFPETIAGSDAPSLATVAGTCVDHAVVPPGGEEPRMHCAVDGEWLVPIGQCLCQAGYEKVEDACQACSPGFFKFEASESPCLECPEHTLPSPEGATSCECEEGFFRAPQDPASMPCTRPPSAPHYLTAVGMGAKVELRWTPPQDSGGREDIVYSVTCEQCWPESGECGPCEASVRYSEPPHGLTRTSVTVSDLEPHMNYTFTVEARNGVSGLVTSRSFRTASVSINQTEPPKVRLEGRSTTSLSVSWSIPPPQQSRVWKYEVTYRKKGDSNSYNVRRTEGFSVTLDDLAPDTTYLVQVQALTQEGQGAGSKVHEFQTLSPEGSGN
Chain of recombinant Mesothelin (Q13421 other isoform, or with tags, fused parts or gaps limits assumed): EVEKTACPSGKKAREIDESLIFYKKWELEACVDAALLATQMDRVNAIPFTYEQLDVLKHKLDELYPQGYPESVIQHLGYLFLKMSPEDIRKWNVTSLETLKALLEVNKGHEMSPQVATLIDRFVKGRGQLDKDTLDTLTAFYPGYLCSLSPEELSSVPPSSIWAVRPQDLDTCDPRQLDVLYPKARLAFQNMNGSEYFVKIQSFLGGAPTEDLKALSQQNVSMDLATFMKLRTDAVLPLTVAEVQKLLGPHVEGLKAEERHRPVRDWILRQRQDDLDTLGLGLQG

binding result (recombinant EGFR): no binding
binding result [1]: no binding
binding result (recombinant Mesothelin): no binding
B1: VEGF-15.2 (BsAb targeting VEGFR2) (other)
chain: HHHHHHEVVKFMDVYQRSYCHPIETLVDIFQEYPDEIEYIFKPSCVPLMRCGGCCNDEGLECVPTEESNITMQIMRIKPHQGQHIGEMSFLQHNKCECRPKKDGSTSGSGKSSEGKGEVVKFMDVYQRSYCHPIETLVDIFQEYPDEIEYIFKPSCVPLMRCGGCCNDEGLECVPTEESNITMQIMRIKPHQGQHIGEMSFLQHNKCECRPKKDSGGGGSEVKLEESGGGLVQPGGSMKLSCVASGFTFSNYWMNWVRQSPEKGLEWVTEIRSKSNNYATHYAESVKGRFTISRDDSKGSVYLQMNNLRAEDTGIYYCSNRYYWGQGTLVTVSAGGGGSGGGGSGGGGSDIVMTQSHKFMSTSVRDRVTITCKASQDVNTSVAWYQQKPGQSPKLVIYWASTRHTGVPDRFTGSGSGTDFTLTISNVQSEDLADYFCLQYINYPYTFGGGTKLEIKEQKLISEEDLN
